From patent publication CN112851814A (XIAN YUFAN BIOTECHNOLOGIES CO LTD, dated 2021)

What was measured:
BCMA蛋白 = target: T1, BCMA蛋白 (human, UniProt Q02223 1-54); experiment: ELISA, BCMA coated at 2 μg/mL, dilution series of B48, detected by anti-HA and HRP goat anti-mouse IgG
T1 construct: extracellular domain; also called 抗原BCMA; B cell maturation antigen
T1 sequence (looked up): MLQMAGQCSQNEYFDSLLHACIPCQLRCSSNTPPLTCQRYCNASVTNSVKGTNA

BSA蛋白 = target: T2, BSA蛋白 (UniProt P02769 25-607); experiment: ELISA, BSA coated at 2 μg/mL, dilution series of B48, detected by anti-HA and HRP goat anti-mouse IgG
T2 construct: Control protein in the ELISA; also called 对照蛋白
T2 sequence (P02769 25-607 limits assumed): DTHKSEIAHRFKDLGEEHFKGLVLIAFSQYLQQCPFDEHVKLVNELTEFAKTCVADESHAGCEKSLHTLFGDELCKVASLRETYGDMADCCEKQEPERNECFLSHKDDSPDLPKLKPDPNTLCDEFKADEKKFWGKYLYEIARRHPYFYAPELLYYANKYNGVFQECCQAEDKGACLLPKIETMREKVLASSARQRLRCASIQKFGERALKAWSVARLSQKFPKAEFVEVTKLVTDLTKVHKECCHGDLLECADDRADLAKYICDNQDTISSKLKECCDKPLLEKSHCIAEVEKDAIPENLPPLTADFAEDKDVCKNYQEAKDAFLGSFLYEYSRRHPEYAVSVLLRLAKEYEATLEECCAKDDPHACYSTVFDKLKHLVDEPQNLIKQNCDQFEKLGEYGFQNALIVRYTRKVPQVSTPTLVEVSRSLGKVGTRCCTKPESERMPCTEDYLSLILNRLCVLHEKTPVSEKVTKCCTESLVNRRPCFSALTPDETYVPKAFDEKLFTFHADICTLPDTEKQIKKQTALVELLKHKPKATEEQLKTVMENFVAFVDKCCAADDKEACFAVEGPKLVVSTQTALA

B1: 抗BCMA单链抗体B48 (scFv)
scFv: QVQLVESGGDLVQPGGSLRLSCAASGFTFDDYAMHWVRQAPGKGLEWVSGISWNSGSIGYADSVKGRFTISRDNAKNSLYLQMNSLRAEDTALYYCAKIAGGAFDIWGQGTMVTVSSGGGGSGGGGSGGGGSDIRMTQSPSTLSASVGDRVTITCQASQNIGHFLAWYQHKPGKAPKLLIYAASTLQSGVPSRFSGSGSGTDFTLTISSLQPEDFGTYYCHHYVTVPLTFGQGTRVEIK
notes: Expressed in E. coli BL21 from pET-26b with an N-terminal pelB signal peptide (secreted to the periplasm); Purified protein carries C-terminal HA and 6xHis tags; also called B48单链抗体; not shown: C-terminal 6xHis tag from the vector pET-26b; vector residues between the insert
- EC50 (BCMA蛋白): 34 nM
- binding result (BSA蛋白): no binding
